We go through 1 substance from patent US20090304581A1.

For this experiment, the target named is CD20 on Daudi cells (human) (UniProt P11836). Put plainly: live-cell radioimmunoreactivity assay on Daudi cells, cell pellet cpm over total cpm.
Sequence of UniProt P11836 (P11836 whole entry): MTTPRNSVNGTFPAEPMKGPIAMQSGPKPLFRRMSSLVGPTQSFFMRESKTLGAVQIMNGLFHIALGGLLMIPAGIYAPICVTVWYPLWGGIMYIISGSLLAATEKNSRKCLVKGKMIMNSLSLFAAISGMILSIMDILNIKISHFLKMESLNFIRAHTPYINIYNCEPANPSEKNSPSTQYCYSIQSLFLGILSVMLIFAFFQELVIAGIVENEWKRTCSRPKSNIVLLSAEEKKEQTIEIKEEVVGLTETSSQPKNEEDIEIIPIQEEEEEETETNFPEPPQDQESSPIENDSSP

SWNT-rituximab-111In*DOTA (antibody) registered a maximum binding (immunoreactive fraction) of 29%.
